The values that follow come from US20190022206A1 (UNIVERSITY OF COPENHAGEN, published 2019).

Assay [1] addresses T1, biotinylated HPV16 Avi-L1 VLP, L1avi1 (H4-loop, HPV16) (Human papillomavirus type 16, UniProt P03101 14-505).
T1 construct: also called VLP1; Avi-L1 (H4-βJ coil)
T1 sequence: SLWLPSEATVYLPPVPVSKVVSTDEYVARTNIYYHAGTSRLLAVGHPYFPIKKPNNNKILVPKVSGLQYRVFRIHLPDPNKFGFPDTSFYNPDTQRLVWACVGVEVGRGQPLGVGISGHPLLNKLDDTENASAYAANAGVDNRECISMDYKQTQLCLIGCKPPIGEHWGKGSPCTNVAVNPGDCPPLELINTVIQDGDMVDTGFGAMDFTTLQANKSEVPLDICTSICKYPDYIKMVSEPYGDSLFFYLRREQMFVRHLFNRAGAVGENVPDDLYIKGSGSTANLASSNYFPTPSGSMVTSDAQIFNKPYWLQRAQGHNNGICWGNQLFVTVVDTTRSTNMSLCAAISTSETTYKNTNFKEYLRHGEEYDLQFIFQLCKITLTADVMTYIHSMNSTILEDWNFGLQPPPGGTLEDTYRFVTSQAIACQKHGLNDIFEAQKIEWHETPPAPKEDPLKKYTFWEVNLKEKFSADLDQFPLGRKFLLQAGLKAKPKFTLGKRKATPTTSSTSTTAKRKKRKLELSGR
Nature of the assay: biotinylated VLPs mixed with excess mSA-antigen, density gradient ultracentrifugation, SDS-PAGE.

In assay [2] the target is T2, biotinylated HPV16 Avi-L1 VLP, L1avi3 (DE-loop, HPV16) (Human papillomavirus type 16, UniProt P03101 2-505).
T2 construct: also called VLP3; Avi-L1 (DE)
T2 sequence: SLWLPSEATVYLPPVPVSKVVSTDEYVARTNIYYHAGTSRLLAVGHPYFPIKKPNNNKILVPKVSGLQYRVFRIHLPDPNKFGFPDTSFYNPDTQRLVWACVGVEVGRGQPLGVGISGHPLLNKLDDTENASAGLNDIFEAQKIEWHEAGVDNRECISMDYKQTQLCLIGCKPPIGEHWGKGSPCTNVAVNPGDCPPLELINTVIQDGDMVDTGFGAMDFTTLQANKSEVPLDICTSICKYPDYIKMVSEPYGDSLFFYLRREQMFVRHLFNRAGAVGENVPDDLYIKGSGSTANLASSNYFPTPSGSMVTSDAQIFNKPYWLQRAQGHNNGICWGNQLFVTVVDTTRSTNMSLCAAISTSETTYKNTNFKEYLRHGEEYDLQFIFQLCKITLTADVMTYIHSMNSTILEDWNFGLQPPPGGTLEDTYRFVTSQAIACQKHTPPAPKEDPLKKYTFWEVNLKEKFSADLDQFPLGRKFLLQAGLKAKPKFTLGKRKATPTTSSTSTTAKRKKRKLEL
Nature of the assay: coupling: biotinylated VLPs mixed with excess mSA-antigen, density gradient ultracentrifugation, SDS-PAGE.

B1: mSA-Pfs25-HIS (other)
chain: AEAGITGTWYNQHGSTFTVTAGADGNLTGQYENRAQGTGCQNSPYTLTGRYNGTKLEWRVEWNNSTENCHSRTEWRGQYQGGAEARINTQWNLTYEGGSGPATEQGQDTFTKVKGGSNKLYSLFLFLFIQLSIKYNNAKVTVDTVCKRGFLIQMSGHLECKCENDLVLVNEETCEEKVLKCDEKTVNKPCGDFSKCIKIDGNPVSYACKCNLGYDMVNNVCIPNECKNVTCGNGKCILDTSNPVKTGVCSCNIGKVPNVQDQNKCSKDGETKCSLKCLKENETCKAVDGIYKCDCKDGFIIDNESSICTAFSAYNILNLSIMFILFSVCFFIM
notes: also called A10
Consider B1, for which, in assay [1], the binding result is listed as “no binding”.

B2: HIS-RO-mSA (other)
chain: GSTSENRNKRIGGPKLRGNVTSNIKFPSDNKGKIIRGSNDKLNKNSEDVLEQSEKSLVSENVPSGLDIDDIPKESIFIQEDQEGQTHSELNPETSEHSKDLNNNGSKNESSDIISENNKSNKVQNHFESLSDLELLENSSQDNLDKDTISTEPFPNQKHKDLQQDLNDEPLEPFPTQIHKDYKEKNLINEEDSEPFPRQKHKKVDNHNEEKNVFHENGSANGNQGSLKLKSFDEHLKDEKIENEPLVHENLSIPNDPIEQILNQPEQETNIQEQLYNEKQNVEEKQNSQIPSLDLKEPTNEDILPNHNPLENIKQSESEINHVQDHALPKENIIDKLDNQKEHIDQSQHNINVLQENNINNHQLEPQEKPNIESFEPKNIDSEIILPENVETEEIIDDVPSPKHSNHETFEEETSESEHEEAVSEKNAHETVEHEETVSQESNPEKADNDGNVSQNSNNELNENEFVESEKSEHEAGGSGAEAGITGTWYNQHGSTFTVTAGADGNLTGQYENRAQGTGCQNSPYTLTGRYNGTKLEWRVEWNNSTENCHSRTEWRGQYQGGAEARINTQWNLTYEGGSGPATEQGQDTFTKVK
notes: also called A6
In the case of B2, the values for the binding result in assay [1] and in assay [2] were “no binding” and “binds”, respectively.

B3: mSA-RO-HIS (other)
chain: AEAGITGTWYNQHGSTFTVTAGADGNLTGQYENRAQGTGCQNSPYTLTGRYNGTKLEWRVEWNNSTENCHSRTEWRGQYQGGAEARINTQWNLTYEGGSGPATEQGQDTFTKVKGGSTSENRNKRIGGPKLRGNVTSNIKFPSDNKGKIIRGSNDKLNKNSEDVLEQSEKSLVSENVPSGLDIDDIPKESIFIQEDQEGQTHSELNPETSEHSKDLNNNGSKNESSDIISENNKSNKVQNHFESLSDLELLENSSQDNLDKDTISTEPFPNQKHKDLQQDLNDEPLEPFPTQIHKDYKEKNLINEEDSEPFPRQKHKKVDNHNEEKNVFHENGSANGNQGSLKLKSFDEHLKDEKIENEPLVHENLSIPNDPIEQILNQPEQETNIQEQLYNEKQNVEEKQNSQIPSLDLKEPTNEDILPNHNPLENIKQSESEINHVQDHALPKENIIDKLDNQKEHIDQSQHNINVLQENNINNHQLEPQEKPNIESFEPKNIDSEIILPENVETEEIIDDVPSPKHSNHETFEEETSESEHEEAVSEKNAHETVEHEETVSQESNPEKADNDGNVSQNSNNELNENEFVESEKSEHEARSKAKEASSYDYILGWEFGGGVPEHKKEENMLSHLYVSSKDKENISKENDDVLDEKEEEAEETEEEELEEKNEEETESEISEDEEEEEEEEEKEEENDKKKEQEKEQSNENNDQKKDMEAQNLISKNQNNNEKNVKEAAESIMKTLAGLIKGNNQIDSTLKDLVEELSKYFKNHRSHHHHHH
notes: also called A5
For B3, the binding result in assay [1] is “no binding”.

B4: mSA-PfRH5-HIS (other)
chain: AEAGITGTWYNQHGSTFTVTAGADGNLTGQYENRAQGTGCQNSPYTLTGRYNGTKLEWRVEWNNSTENCHSRTEWRGQYQGGAEARINTQWNLTYEGGSGPATEQGQDTFTKVKGGSLSFENAIKKTKNQENNLTLLPIKSTEEEKDDIKNGKDIKKEIDNDKENIKTNNAKDHSTYIKSYLNTNVNDGLKYLFIPSHNSFIKKYSVFNQINDGMLLNEKNDVKNNEDYKNVDYKNVNFLQYHFKELSNYNIANSIDILQEKEGHLDFVIIPHYTFLDYYKHLSYNSIYHKYSTYGKYIAVDAFIKKINETYDKVKSKCNDIKNDLIATIKKLEHPYDINNKNDDSYRYDISEEIDDKSEETDDETEEVEDSIQDTDSNHTPSNKKKNDLMNRTFKKMMDEYNTKKKKLIKCIKNHENDFNKICMDMKNYGTNLFEQLSCYNNNFCNTNGIRFHYDEYIHKLILSVKSKNLNKDLSDMTNILQQSELLLTNLNKKMGSYIYIDTIKFIHKEMKHIFNRIEYHTKIINDKTKIIQDKIKLNIWRTFQKDELLKRILDMSNEYSLFITSDHLRQMLYNTFYSKEKHLNNIFHHLIYVLQMKFNDVPIKMEYFQTYKKNKPLTQHHHHHH
notes: mSA fused by GGS to PfRH5, C-terminal His tag; also called A9
In the case of B4, the binding result in assay [1] was “no binding”; in assay [2] it was “binds”.

B5: HIS-GMZ2ggsmSA (other)
chain: GSTSENRNKRIGGPKLRGNVTSNIKFPSDNKGKIIRGSNDKLNKNSEDVLEQSEKSLVSENVPSGLDIDDIPKESIFIQEDQEGQTHSELNPETSEHSKDLNNNGSKNESSDIISENNKSNKVQNHFESLSDLELLENSSQDNLDKDTISTEPFPNQKHKDLQQDLNDEPLEPFPTQIHKDYKEKNLINEEDSEPFPRQKHKKVDNHNEEKNVFHENGSANGNQGSLKLKSFDEHLKDEKIENEPLVHENLSIPNDPIEQILNQPEQETNIQEQLYNEKQNVEEKQNSQIPSLDLKEPTNEDILPNHNPLENIKQSESEINHVQDHALPKENIIDKLDNQKEHIDQSQHNINVLQENNINNHQLEPQEKPNIESFEPKNIDSEIILPENVETEEIIDDVPSPKHSNHETFEEETSESEHEEAVSEKNAHETVEHEETVSQESNPEKADNDGNVSQNSNNELNENEFVESEKSEHEARSKAKEASSYDYILGWEFGGGVPEHKKEENMLSHLYVSSKDKENISKENDDVLDEKEEEAEETEEEELEEKNEEETESEISEDEEEEEEEEEKEEENDKKKEQEKEQSNENNDQKKDMEAQNLISKNQNNNEKNVKEAAESIMKTLAGLIKGNNQIDSTLKDLVEELSKYFKNHGGSGAEAGITGTWYNQHGSTFTVTAGADGNLTGQYENRAQGTGCQNSPYTLTGRYNGTKLEWRVEWNNSTENCHSRTEWRGQYQGGAEARINTQWNLTYEGGSGPATEQGQDTFTKVK
notes: also called A7
As for B5, the binding result in assay [1] is “no binding”; in assay [2], “binds”.

B6: HIS-GMZ2T:ggsmSA (other)
chain: GSTSENRNKRIGGPKLRGNVTSNIKFPSDNKGKIIRGSNDKLNKNSEDVLEQSEKSLVSENVPSGLDIDDIPKESIFIQEDQEGQTHSELNPETSEHSKDLNNNGSKNESSDIISENNKSNKVQNHFESLSDLELLENSSQDNLDKDTISTEPFPNQKHKDLQQDLNDEPLEPFPTQIHKDYKEKNLINEEDSEPFPRQKHKKVDNHNEEKNVFHENGSANGNQGSLKLKSFDEHLKDEKIENEPLVHENLSIPNDPIEQILNQPEQETNIQEQLYNEKQNVEEKQNSQIPSLDLKEPTNEDILPNHNPLENIKQSESEINHVQDHALPKENIIDKLDNQKEHIDQSQHNINVLQENNINNHQLEPQEKPNIESFEPKNIDSEIILPENVETEEIIDDVPSPKHSNHETFEEETSESEHEEAVSEKNAHETVEHEETVSQESNPEKADNDGNVSQNSNNELNENEFVESEKSEHEARSKTKEYAEKAKNAYEKAKNAYQKANQAVLKAKEASSYDYILGWEFGGGVPEHKKEENMLSHLYVSSKDKENISKENDDVLDEKEEEAEETEEEELEGGSGAEAGITGTWYNQHGSTFTVTAGADGNLTGQYENRAQGTGCQNSPYTLTGRYNGTKLEWRVEWNNSTENCHSRTEWRGQYQGGAEARINTQWNLTYEGGSGPATEQGQDTFTKVK
notes: also called A8
For B6, the values for the binding result in assay [1] and in assay [2] were “no binding” and “binds”, respectively.

B7: mSA-ID1ID2a-HIS (other)
chain: AEAGITGTWYNQHGSTFTVTAGADGNLTGQYENRAQGTGCQNSPYTLTGRYNGTKLEWRVEWNNSTENCHSRTEWRGQYQGGAEARINTQWNLTYEGGSGPATEQGQDTFTKVKGGSNYIKGDPYFAEYATKLSFILNPSDANNPSGETANHNDEACNCNESGISSVGQAQTSGPSSNKTCITHSSIKTNKKKECKDVKLGVRENDKDLKICVIEDTSLSGVDNCCCQDLLGILQENCSDNKRGSSSNDSCDNKNQDECQKKLEKVFASLTNGYKCDKCKSGTSRSKKKWIWKKSSGNEEGLQEEYANTIGLPPRTQSLYLGNLPKLENVCEDVKDINFDTKEKFLAGCLIVSFHEGKNLKKRYPQNKNSGNKENLCKALEYSFADYGDLIKGTSIWDNEYTKDLELNLQNNFGKLFGKYIKKNNTAEQDTSYSSLDELRESWWNTNKKYIWTAMKHGAEMNITTCNADGSVTGSGSSCDDIPTIDLIPQYLRFLQEWVENFCEQRQAKVKDVITNCKSCKESGNKCKTECKTKCKDECEKYKKFIEACGTAGGGIGTAGSPWSKRWDQIYKRYSKHIEDAKRNRKAGTKNCGTSSTTNAAASTDENKCVQSDIDSFFKHLIDIGLTTPSSYLSNVLDDNICGADKAPWTTYTTYTTTEKCNKERDKSKSQSSDTLVVVNVPSPLGNTPYRYKYACQCKIPTNEETCDDRKEYMNQWSCGSARTMKRGYKNDNYELCKYNGVDVKPTTVRSNSSKLDHHHHHH
notes: mSA fused at the amino terminus by Gly-Gly-Ser to the ID1-ID2a domains of VAR2CSA, C-terminal 6x histidine tag; made in baculovirus-infected High-Five cells; also called A4; mSA-VAR2CSA
Regarding B7, the values for the binding result in assay [1] and in assay [2] were “no binding” and “binds”, respectively.
